T1: In-house produced Avi-tagged N256A mutated CEACAM5 (UniProt P06731 35-685)
T1 chain: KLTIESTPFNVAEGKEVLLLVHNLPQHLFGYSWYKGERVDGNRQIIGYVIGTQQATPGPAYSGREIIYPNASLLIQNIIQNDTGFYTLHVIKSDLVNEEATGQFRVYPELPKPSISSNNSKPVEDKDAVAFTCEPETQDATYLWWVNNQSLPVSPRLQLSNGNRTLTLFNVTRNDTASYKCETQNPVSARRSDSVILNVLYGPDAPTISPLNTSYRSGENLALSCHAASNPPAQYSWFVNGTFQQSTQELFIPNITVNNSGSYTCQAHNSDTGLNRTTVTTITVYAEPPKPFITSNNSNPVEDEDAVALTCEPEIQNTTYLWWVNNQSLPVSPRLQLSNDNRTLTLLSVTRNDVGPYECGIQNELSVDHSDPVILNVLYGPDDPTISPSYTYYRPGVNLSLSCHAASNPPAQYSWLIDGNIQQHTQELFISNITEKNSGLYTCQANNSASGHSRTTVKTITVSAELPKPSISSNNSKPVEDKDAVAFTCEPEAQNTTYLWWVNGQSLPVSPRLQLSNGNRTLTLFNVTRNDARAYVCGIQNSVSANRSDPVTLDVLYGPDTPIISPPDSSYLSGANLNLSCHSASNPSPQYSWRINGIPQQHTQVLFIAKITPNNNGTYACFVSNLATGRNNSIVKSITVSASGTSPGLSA

T2: In-house produced Avi-tagged CEACAM5 (UniProt P06731 35-685)
T2 chain: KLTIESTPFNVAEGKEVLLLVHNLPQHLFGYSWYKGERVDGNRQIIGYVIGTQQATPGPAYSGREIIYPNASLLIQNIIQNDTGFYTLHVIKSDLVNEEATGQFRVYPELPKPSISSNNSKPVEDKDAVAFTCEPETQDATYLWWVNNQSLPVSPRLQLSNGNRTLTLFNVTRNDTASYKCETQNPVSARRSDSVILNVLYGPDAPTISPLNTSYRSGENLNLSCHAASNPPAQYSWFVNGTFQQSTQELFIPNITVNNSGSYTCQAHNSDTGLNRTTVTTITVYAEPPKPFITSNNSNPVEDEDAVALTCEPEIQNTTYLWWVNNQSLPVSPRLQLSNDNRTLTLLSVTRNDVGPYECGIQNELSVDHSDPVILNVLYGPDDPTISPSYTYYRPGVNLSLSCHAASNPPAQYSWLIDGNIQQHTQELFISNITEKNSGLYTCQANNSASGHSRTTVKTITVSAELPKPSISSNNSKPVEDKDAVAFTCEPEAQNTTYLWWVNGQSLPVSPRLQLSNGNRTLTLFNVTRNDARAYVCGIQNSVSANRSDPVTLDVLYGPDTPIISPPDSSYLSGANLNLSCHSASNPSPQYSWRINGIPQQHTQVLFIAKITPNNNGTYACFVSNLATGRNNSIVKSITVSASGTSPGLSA

T3: In-house produced Avi-tagged N256A mutated CEACAM6 (UniProt P40199 35-320)
T3 chain: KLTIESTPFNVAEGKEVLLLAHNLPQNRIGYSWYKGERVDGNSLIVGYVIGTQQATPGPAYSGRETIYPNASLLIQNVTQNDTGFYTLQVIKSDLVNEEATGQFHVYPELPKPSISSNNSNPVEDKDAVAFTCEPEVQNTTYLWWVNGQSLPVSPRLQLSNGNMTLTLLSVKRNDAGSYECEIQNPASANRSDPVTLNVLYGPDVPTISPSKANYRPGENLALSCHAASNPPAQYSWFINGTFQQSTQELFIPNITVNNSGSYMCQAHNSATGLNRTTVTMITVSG

T4: In-house produced Avi-tagged CEACAM6 (UniProt P40199 35-320)
T4 chain: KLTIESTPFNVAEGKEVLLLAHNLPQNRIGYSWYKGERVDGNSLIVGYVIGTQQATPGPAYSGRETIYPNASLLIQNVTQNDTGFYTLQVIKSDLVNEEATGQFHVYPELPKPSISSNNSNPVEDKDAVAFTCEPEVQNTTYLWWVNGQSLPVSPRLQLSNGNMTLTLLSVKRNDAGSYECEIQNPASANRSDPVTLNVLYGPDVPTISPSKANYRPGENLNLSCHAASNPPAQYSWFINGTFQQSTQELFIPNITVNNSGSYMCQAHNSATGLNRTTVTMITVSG


How the values were obtained:
Experiment in all cases: BLI
CEACAM5 N256A = CEACAM5 N256A (UniProt P06731)
CEACAM5 = CEACAM5 (UniProt P06731)
CEACAM6 N256A = CEACAM6 N256A (UniProt P40199)
CEACAM6 = CEACAM6 (UniProt P40199)
[1] = biological target: T1, In-house produced Avi-tagged N256A …
[2] = biological target: T2, In-house produced Avi-tagged CEACAM5
[3] = biological target: T3, In-house produced Avi-tagged N256A …
[4] = biological target: T4, In-house produced Avi-tagged CEACAM6

Kd (CEACAM5 N256A) [nM]	Kd (CEACAM5) [nM]	Kd (CEACAM6 N256A) [nM]	Kd (CEACAM6) [nM]	Kd [1] [nM]	Kd [2] [nM]	Kd [3] [nM]	Kd [4] [nM]	Molecule
1.27	1.37							Tusamitamab
0.401	0.321	0.217	0.126					NEO-201
				> 200	63.8	3180	71.5	AB1 antibody (antibody, V domains shown) VH: QVQLVQSGAEVKKPGASVKVSCKASGNTFTSYVMHWVRQAPGQGLEWMGYINPYNDGTKYNEKFKGRVTMTRDTSTSTVYMELSSLRSEDTAVYYCARSTARATPYFYAMDYWGQGTLVTVSS VL: DIVMTQSPDSLAVSLGERATINCKSSQSLLWSVNQNSYLSWYQLKPGQPPKLLLYGASIRESGVPDRFSGSGSGTDFTLTISSLQAEDVAVYYCQHNHGSFLPYTFGGGTKLEIKR
				0.555	0.775	1.61	1.57	EBC-123 (antibody, V domains shown) VH: QVQLVQSGAEVKKPGASVKVSCKASGNTFTSYVMHWVRQAPGQGLEWMGYINPYNDGTKYNEKFKGRVTMTRDTSTSTVYMELSSLRSEDTAVYYCARSTARATPYFYAMDYWGQGTLVTVSS VL: DIVMTQSPDSLAVSLGERATINCKSSQSLLWSVNQNSYLSWYQLKPGQPPKLLLYGASIRESGVPDRFSGSGSGTDFTLTISSLQAEDVAVYYCQHNHGSFLPYTFGGGTKLEIKR
